From US20240360189A1

Key:
[1] = target: FcγRIIIA (CD16) (human) (UniProt P08637); test: cell-based or functional assay
[2] = target: CD20 on Daudi lymphoma cells (UniProt P11836); test: flow cytometry on Daudi cells, goat anti-human Fc AF647; matched Fc density chosen for the comparison of C3b deposition, concentration not given
Chain of CD20 on Daudi lymphoma cells (P11836 whole entry): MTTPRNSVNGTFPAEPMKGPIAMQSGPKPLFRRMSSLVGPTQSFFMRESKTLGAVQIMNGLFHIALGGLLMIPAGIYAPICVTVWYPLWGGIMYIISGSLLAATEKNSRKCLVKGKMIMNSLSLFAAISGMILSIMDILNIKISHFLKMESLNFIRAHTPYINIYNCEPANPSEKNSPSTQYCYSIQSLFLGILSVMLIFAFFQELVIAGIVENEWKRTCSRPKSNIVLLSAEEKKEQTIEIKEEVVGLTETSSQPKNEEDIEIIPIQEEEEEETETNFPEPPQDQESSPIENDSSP

Chain of FcγRIIIA (CD16) (human) (P08637 17-254): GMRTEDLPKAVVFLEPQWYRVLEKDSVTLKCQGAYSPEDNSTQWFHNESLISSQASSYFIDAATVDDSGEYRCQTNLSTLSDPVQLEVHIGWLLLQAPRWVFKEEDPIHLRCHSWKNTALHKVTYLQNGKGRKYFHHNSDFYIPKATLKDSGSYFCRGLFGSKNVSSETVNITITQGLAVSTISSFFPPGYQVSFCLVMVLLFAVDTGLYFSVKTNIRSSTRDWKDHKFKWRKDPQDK

Substance: MabThera (rituximab, RTX) (antibody)
- percentage of phagocytic macrophages, Daudi targets, absence of complement (ADCP) [1]: 8.6%
- percentage of phagocytic macrophages, Daudi targets, presence of complement (ADCP+CDCP) [1]: 24.1%
- MFI anti-Fc [2]: 12200 MFI
